Legend:
F9 teratocarcinoma [1] = experiment: Therapy studies in F9 teratocarcinoma-bearing mice; type: in vivo, mouse
Protocol: In a dose finding study, F9 tumour-bearing mice were randomly grouped (n=5) and injected intravenously (i.v.) into the lateral tail vein when tumours were clearly palpable. […] The therapeutic antibodies were all dissolved in phosphate buffered saline (PBS) and this buffer was also used in the negative control treatment groups. The mice were monitored daily and tumour volume was measured with a calliper (volume=length×width^2×0.5).

CT26 colon carcinoma [2] = experiment: Ex vivo immunofluorescence of CT26 tumours; type: in vivo, mouse
Text: (§1) In order to study a second immunocompetent mouse model of cancer, the inventors focused on Balb/c mice (obtained from Elevage Janvier [France]) bearing subcutaneous CT26 tumours of colorectal origin.

[3] = tested on: cytokine levels in ear tissue; experiment: Cytokine levels in ear tissue extracts of psoriasis models (multiplex bead flow cytometry); type: in vivo, mouse
Protocol: Ear tissue was obtained at the end of therapy from each mouse and processed to a tissue extract as previously described (Schwager et al., 2013). The end of therapy was day 13 for the IMQ model described in Example 14 and day 15 for the CHS model described in Example 15. Briefly, ears were cut into small pieces and suspended in a 50 mM Tris, 150 mM NaCl buffer containing complete protease inhibitor cocktail (Roche Diagnostics, Rotkreuz, Switzerland). For homogenization, a 5 mm stainless steel bead (Qiagen, Hombrechtikon, Switzerland) was added, and the tissue was homogenized in a QIAGEN Tissue Lyzer (4× 1 minute, 4° C., 30 Hz). After centrifugation (5 min, 4° C., 16,000 g), supernatant was harvested […]. Protein concentrations were determined by BCA assay (Thermo Fisher Scientific, IL) and total protein concentration of all samples was normalized. To quantify cytokine levels of treated and control mice, a multiplex bead-based flow cytometry analysis was performed using the mouse Th1/Th2/Th17/Th22 13plex FlowCytomix Multiplex kit (eBioscience). FACS analysis was performed on a BD FACS Canto (BD Bioscience, Allschwil, Switzerland) and data evaluated with FlowCytomix Pro 3.0 software (eBioscience). Using standard curves generated by the FlowCytomix Pro 3.0 software with control samples, a level of quantification was assigned for each cytokine.

F9 teratocarcinoma [4] = experiment: Quantitative biodistribution in F9 tumour-bearing mice; type: in vivo, mouse
Protocol: The in vivo targeting performance was assessed by quantitative biodistribution where 15 μg of radioiodinated fusion protein was injected i.v. into the lateral tail vein of immunocompetent 11-12 week old female Sv129Ev mice (obtained from Charles River [Germany]), bearing sub-cutaneously grafted F9 tumours (for labelling protocol, see (Pasche et al. 2011)). Mice were sacrificed 24 hours after injection, organs were excised, weighed and radioactivity was measured using a Packard Cobra γ counter.

[5] = tested on: endometriotic lesions in Balb/c mice; experiment: Endometriosis model in Balb/c mice; type: in vivo, mouse
Protocol: Endometriosis was induced in sixty eight-week old female Balb/c mice according to the protocol described by Somigliana et al. (1999).
One day after the implantation of endometrial tissue, pairs of mice (who received tissue from the same donor) were treated either with intravenous (i.v.) injections of F8-murine IL4 (200 μg/mouse; SEQ ID NO: 21) or PBS (group 1); or with i.v. injections of KSF-murine IL4 (200 μg/mouse; SEQ ID NO: 44) or PBS (group 2). The same treatment was repeated at days 4 and 7. Mice were sacrificed at day 15.

CT26 colon carcinoma [6] = experiment: Therapy studies in CT26 tumour-bearing mice; conditions: 90 μg i.v. every 48 h
Text: Data represent mean tumour volumes (±SEM), n=5 mice per group. […] Data represent mean tumour volumes (±SEM), n=5 mice per group.
In the description of the below experiments, data are expressed as the mean (±SEM). Differences in tumor volume, % ID/g and Tumor-to-blood ratio between therapeutic groups were compared using Graphpad Prism's repeated measures (mixed model) ANOVA analysis.
Mice were sacrificed when tumour volumes reached a maximum of 2000 mm^3.
as §1

[7] = tested on: tumour neovascular structures in murine F9, CT26 and A20 tumours; experiment: Immunofluorescence on untreated tumour sections; set-up: species or system mouse; conditions: biotinylated protein on F9, CT26 and A20 tumour sections
Text: For detection streptavidin-Alexa Fluor 488 and anti-rat-Alexa Fluor 594 (Invitrogen) were used. Slides were mounted with fluorescent mounting medium (Dako) and analyzed with an Axioskop2 mot plus microscope (Zeiss).

[8] = IMQ and CHS models, end of therapy
[9] = 15 μg radioiodinated protein i.v., 24 hours
[10] = 200 μg/mouse i.v. days 1, 4, 7, day 15, vs PBS

B1: F8-IL4: antibody F8 (anti-EDA of fibronectin) in diabody format fused at the C-terminus to murine interleukin 4 via 15 amino acid linker (protein)
chain: EVQLLESGGGLVQPGGSLRLSCAASGFTFSLFTMSWVRQAPGKGLEWVSAISGSGGSTYYADSVKGRFTISRDNSKNTLYLQMNSLRAEDTAVYYCAKSTHLYLFDYWGQGTLVTVSSGGSGGEIVLTQSPGTLSLSPGERATLSCRASQSVSMPFLAWYQQKPGQAPRLLIYGASSRATGIPDRFSGSGSGTDFTLTISRLEPEDFAVYYCQQMRGRPPTFGQGTKVEIKSSSSGSSSSGSSSSGHIHGCDKNHLREIIGILNEVTGEGTPCTEMDVPNVLTATKNTTESELVCRASKVLRIFYLKHGKTPCLKKNSSVLMELQRLFRAFRCLDSSISCTMNESKSTSLKDFLESLKSIMQMDYS
modifications: Synthetic sequence Amino acid sequence of F8 -(murine) IL4 of PCT/EP2014/053998
notes: antibody F8 (anti-EDA of fibronectin) in diabody format fused at the C-terminus to murine interleukin 4 via 15 amino acid linker
For B1, the “tumour retardation in dose finding study” value (F9 teratocarcinoma [1]; 90 μg compared with 45 μg, i.v. every second day) was “best tumour retardation results”, the “therapeutic effect compared with KSF-IL4” value (F9 teratocarcinoma [1]; 90 μg i.v. every second day) was “substantially more potent” and the “cure of F9 tumours by treatment alone” value (F9 teratocarcinoma [1]; monotherapy) was “not cured”. For the same molecule, the single-agent therapeutic activity (F9 teratocarcinoma [1]; mouse, in vivo) was “potent single-agent therapeutic activity”, the “accumulation at the tumour site” value (CT26 colon carcinoma [2]) was “preferentially accumulated at the tumour site” and the “IL2 level in ear tissue” value [3, 8] was “do not appear to show a change in concentration”. The “IL10 level in ear tissue” value [3, 8] was “up-regulated”, the “IL13 level in ear tissue” value [3, 8] was “up-regulated” and the “IL27 level in ear tissue” value [3, 8] was “up-regulated”. The “IL-1 alpha level in ear tissue” value ([3]; IMQ-induced psoriasis model) was “may be down-regulated”, the “accumulation at the tumour site (% ID/g)” value (F9 teratocarcinoma [4]; [9]) was “preferential accumulation” and the tumour-to-blood ratio (F9 teratocarcinoma [4]; [9]) was 12. The “clearance from the blood stream” value (F9 teratocarcinoma [4]; 24 hours after i.v. injection) was “fast clearance from the blood stream”, the “mice completely cured of the disease” value ([5]; 200 μg/mouse i.v.) was “three mice out of ten” and the “number of the endometriotic lesions” value [5, 10] was “statistically significant reduction”. For the same molecule, the “volume of the endometriotic lesions” value [5, 10] was “statistically significant reduction”, the therapeutic performance (CT26 colon carcinoma [6]) was “superior therapeutic performance compared to KSF-IL4” and the “recognition of tumour neovascular structures” value [7] was “able to recognize tumour neovascular structures”.
